The target of the test is T1, TrkA-His tagged extracellular domain protein (Ala 34-Gly423) (UniProt P04629 34-423, RED-Tris-NTA dye on the His tag (Monolith His-Tag Labeling Kit)).
T1 construct: TrkA (tropomyosin kinase A) extracellular domain, Ala34-Gly423; The TrkA used for nanoDSF is not described; source: bought: R&D Systems (9966-TK-050)
Briefly: MST; binding check: peptides and TrkA-His labelled with RED-Tris-NTA; PBS-T; high MST power, 100% LED. As to conditions: both partners purified.

T1 sequence (P04629 34-423): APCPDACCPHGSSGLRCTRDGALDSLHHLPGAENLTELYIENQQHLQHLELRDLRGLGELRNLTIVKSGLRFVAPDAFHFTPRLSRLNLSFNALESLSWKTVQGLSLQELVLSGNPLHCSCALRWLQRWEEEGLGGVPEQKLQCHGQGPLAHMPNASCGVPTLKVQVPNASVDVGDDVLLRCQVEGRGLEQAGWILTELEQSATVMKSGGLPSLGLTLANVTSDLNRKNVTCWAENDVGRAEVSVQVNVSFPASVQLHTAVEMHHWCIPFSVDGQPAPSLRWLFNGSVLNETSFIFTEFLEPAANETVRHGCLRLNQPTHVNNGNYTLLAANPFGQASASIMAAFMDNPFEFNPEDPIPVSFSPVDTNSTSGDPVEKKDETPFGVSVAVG

B1: CD44v3 mimetic peptide 4 (peptide)
peptide: IDDDEDFISST
notes: zone 4, the C-terminal region of CD44 variant exon v3; numbers count on: exon v3 (D34, F38 as printed); also called P4; CD44v3 C-terminal-mimicking peptide; source: synthetic peptide
On to B1, for which the binding result is listed as “binds”.

B2: CD44v3 mimetic peptide 3 (peptide)
peptide: RDRHLSFSGSG
notes: zone 3 of CD44 variant exon v3; not glycosylated; numbers count on: exon v3; also called P3; source: synthetic peptide
On to B2, for which the binding result is on record as “binds”.

Source of the values: article PMC8962522, “Direct interaction of TrkA/CD44v3 is essential for NGF-promoted aggressiveness of breast cancer cells” (Journal of Experimental & Clinical Cancer Research : CR, 2022).
